From paper PMC11900802 come the findings set out here.

Series [1] in a line: immunofluorescence, nuclear FOXD1. The note with it: glycan lost.
Series [2] is described as follows: Western blot of FOXD1. As to conditions: glycan lost; control: vector control.

B1: FOXD1: tunicamycin (protein)
parent chain: MTLSTEMSDASGLAEETDIDVVGEGEDEEDEEEEDDDEGGGGGPRLAVPAQRRRRRRSYAGEDELEDLEEEEDDDDILLAPPAGGSPAPPGPAPAAGAGAGGGGGGGGAGGGGSAGSGAKNPLVKPPYSYIALITMAILQSPKKRLTLSEICEFISGRFPYYREKFPAWQNSIRHNLSLNDCFVKIPREPGNPGKGNYWTLDPESADMFDNGSFLRRRKRFKRQPLLPPNAAAAESLLLRGAGAAGGAGDPAAAAALFPPAPPPPPHAYGYGPYGCGYGLQLPPYAPPSALFAAAAAAAAAAAFHPHSPPPPPPPHGAAAELARTAFGYRPHPLGAALPGPLPASAAKAGGPGASALARSPFSIESIIGGSLGPAAAAAAAAQAAAAAQASPSPSPVAAPPAPGSSGGGCAAQAAVGPAAALTRSLVAAAAAAASSVSSSAALGTLHQGTALSSVENFTARISNC
Regarding B1, in series [1] (control: untreated), the localisation_or_trafficking result is reported as “decreases”.

B2: FOXD1: GEM+TM (protein)
parent chain: B1 parent chain
B2: the localisation_or_trafficking result in series [1] (control: GEM alone) is listed as “decreases”.

B3: FOXD1: ALG3 knockdown (protein)
parent chain: B1 parent chain
In the case of B3, the expression_or_secretion entry in series [2] is reported as “decreases”. Further, the localisation_or_trafficking entry in series [1] (control: vector control) is recorded as “decreases”.
